The record followed here is article PMC7226468, “Insight into the RssB-Mediated Recognition and Delivery of σ^s to the AAA+ Protease, ClpXP” (Biomolecules, 2020).

Data set [1] deals with the molecule itself. Put plainly: cross-linking; 0.005% (v/v) glutaraldehyde, 35 μg of each protein, 20 mM Hepes-KOH pH 7.5, 140 mM NaCl, 10 mM MgCl2, time course; SDS-PAGE and immunodecoration (anti-His, anti-RssB or anti-σS antisera).
Data set [2] concerns the target T1, RssB (residues 1–337), untagged (E. coli, UniProt P0AEV1 1-337).
T1 sequence (looked up): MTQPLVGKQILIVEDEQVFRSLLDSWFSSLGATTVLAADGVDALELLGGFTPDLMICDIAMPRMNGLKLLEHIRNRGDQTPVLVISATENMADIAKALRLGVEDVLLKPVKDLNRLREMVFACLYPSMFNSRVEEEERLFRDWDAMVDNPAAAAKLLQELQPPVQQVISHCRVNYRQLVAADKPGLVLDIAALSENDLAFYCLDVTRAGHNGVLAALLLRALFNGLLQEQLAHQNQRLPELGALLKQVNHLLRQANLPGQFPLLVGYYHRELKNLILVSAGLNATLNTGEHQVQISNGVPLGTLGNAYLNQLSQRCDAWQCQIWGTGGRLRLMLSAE
Put plainly: cell-based or functional assay.

B1: RssBN (residues 1–128), untagged (domain or fragment, E. coli, UniProt P0AEV1 1-128, looked up)
chain: MTQPLVGKQILIVEDEQVFRSLLDSWFSSLGATTVLAADGVDALELLGGFTPDLMICDIAMPRMNGLKLLEHIRNRGDQTPVLVISATENMADIAKALRLGVEDVLLKPVKDLNRLREMVFACLYPSM
notes: RssB, E. coli, N-terminal receiver domain, residues 1-128; also called N-terminal domain of RssB; REC domain; source: Ub-fusion system, purified (IMAC, SEC)
By stoichiometry N is commonly meant a count of units in the complex or per binding partner. Consider B1, for which, in data set [1], the “stoichiometry N” value was 2.

B2: His6-tagged zinc binding domain (ZBD) of E. coli ClpX (domain or fragment, UniProt P0A6H1 1-60, looked up)
chain: MTDKRKDGSGKLLYCSFCGKSQHEVRKLIAGPSVYICDECVDLCNDIIREEIKEVAPHRE
notes: Dimer by glutaraldehyde cross-linking; also called ClpXZBD; ecClpXZBD; source: purified ("Pure ecClpXZBD")
B2: the “half-life of σS in RssB-mediated turnover by 1.2 µM ClpXP with 2, 5 and 15 µM SspB added (from ~2.5 min without SspB)” value in data set [2] is roughly 23 min. Moreover, in data set [1], the “stoichiometry N” value is 2.

B3: RssBC (residues 131–337), untagged (domain or fragment, E. coli, UniProt P0AEV1 131-337, looked up)
chain: SRVEEEERLFRDWDAMVDNPAAAAKLLQELQPPVQQVISHCRVNYRQLVAADKPGLVLDIAALSENDLAFYCLDVTRAGHNGVLAALLLRALFNGLLQEQLAHQNQRLPELGALLKQVNHLLRQANLPGQFPLLVGYYHRELKNLILVSAGLNATLNTGEHQVQISNGVPLGTLGNAYLNQLSQRCDAWQCQIWGTGGRLRLMLSAE
notes: RssB, E. coli, C-terminal effector domain, residues 131-337; also called C-terminal domain of RssB; effector domain; source: Ub-fusion system, purified (IMAC, SEC)
Turning to B3, the “stoichiometry N” value in data set [1] was found to be 2.
